# Source: publication PMC9469209, “Structural basis for activation of Arf1 at the Golgi complex” (Cell reports, 2022)
# B1: Gea2 (full-length Saccharomyces cerevisiae Gea2) (enzyme, UniProt P39993 1-1459, looked up)
# chain: MSDREFVTVDPVTIIIKECINLSTAMRKYSKFTSQSGVAALLGGGSEIFSNQDDYLAHTFNNLNTNKHNDPFLSGFIQLRLMLNKLKNLDNIDSLTILQPFLLIVSTSSISGYITSLALDSLQKFFTLNIINESSQNYIGAHRATVNALTHCRFEGSQQLSDDSVLLKVVFLLRSIVDSPYGDLLSNSIIYDVLQTILSLACNNRRSEVLRNAAQSTMIAVTVKIFSKLKTIEPVNVNQIYINDESYTNDVLKADTIGTNVESKEEGSQEDPIGMKVNNEEAISEDDGIEEEHIHSEKSTNGAEQLDIVQKTTRSNSRIQAYADDNYGLPVVRQYLNLLLSLIAPENELKHSYSTRIFGLELIQTALEISGDRLQLYPRLFTLISDPIFKSILFIIQNTTKLSLLQATLQLFTTLVVILGNNLQLQIELTLTRIFSILLDDGTANNSSSENKNKPSIIKELLIEQISILWTRSPSFFTSTFINFDCNLDRADVSINFLKALTKLALPESALTTTESVPPICLEGLVSLVDDMFDHMKDIDREEFGRQKNEMEILKKRDRKTEFIECTNAFNEKPKKGIPMLIEKGFIASDSDKDIAEFLFNNNNRMNKKTIGLLLCHPDKVSLLNEYIRLFDFSGLRVDEAIRILLTKFRLPGESQQIERIIEAFSSAYCENQDYDPSKISDNAEDDISTVQPDADSVFILSYSIIMLNTDLHNPQVKEHMSFEDYSGNLKGCCNHKDFPFWYLDRIYCSIRDKEIVMPEEHHGNEKWFEDAWNNLISSTTVITEIKKDTQSVMDKLTPLELLNFDRAIFKQVGPSIVSTLFNIYVVASDDHISTRMITSLDKCSYISAFFDFKDLFNDILNSIAKGTTLINSSHDDELSTLAFEYGPMPLVQIKFEDTNTEIPVSTDAVRFGRSFKGQLNTVVFFRIIRRNKDPKIFSKELWLNIVNIILTLYEDLILSPDIFPDLQKRLKLSNLPKPSPEISINKSKESKGLLSTFASYLKGDEEPTEEEIKSSKKAMECIKSSNIAASVFGNESNITADLIKTLLDSAKTEKNADNSRYFEAELLFIIELTIALFLFCKEEKELGKFILQKVFQLSHTKGLTKRTVRRMLTYKILLISLCADQTEYLSKLINDELLKKGDIFTQKFFATNQGKEFLKRLFSLTESEFYRGFLLGNENFWKFLRKVTAMKEQSESIFEYLNESIKTDSNILTNENFMWVLGLLDEISSMGAVGNHWEIEYKKLTESGHKIDKENPYKKSIELSLKSIQLTSHLLEDNNDLRKNEIFAIIQALAHQCINPCKQISEFAVVTLEQTLINKIEIPTNEMESVEELIEGGLLPLLNSSETQEDQKILISSILTIISNVYLHYLKLGKTSNETFLKILSIFNKFVEDSDIEKKLQQLILDKKSIEKGNGSSSHGSAHEQTPESNDVEIEATAPIDDNTDDDNKPKLSDVEKD
# notes: Gea2, guanine nucleotide exchange factor for Arf1, Saccharomyces cerevisiae, full length; also called Arf-GEF Gea2; source: Pichia pastoris (KM71H), overexpressed, purified (Ni-NTA, MonoQ, TEV cleavage, Superdex 200 Increase SEC); not shown: His6, N-terminal, cleaved
# B2: ΔN17-Arf1 (S. cerevisiae Arf1 lacking its N-terminal amphipathic helix) (domain or fragment, UniProt P11076 18-181, looked up)
# chain: MRILMVGLDGAGKTTVLYKLKLGEVITTIPTIGFNVETVQYKNISFTVWDVGGQDRIRSLWRHYYRNTEGVIFVVDSNDRSRIGEAREVMQRMLNEDELRNAAWLVFANKQDLPEAMSAAEITEKLGLHSIRNRPWFIQATCATSGEGLYEGLEWLSNSLKNST
# notes: Arf1 GTPase, Saccharomyces cerevisiae, truncated form lacking the N-terminal 17 residues (ΔN17); In the complex Arf1 is nucleotide-free (trapped with alkaline phosphatase); also called nucleotide-free Arf1; Arf1-NF; source: E. coli Rosetta2, purified as previously described (Richardson and Fromme, 2015; Richardson et al., 2012)
# Tests used:
# [1] = target: the molecule itself; assay: cryo-EM structure; Gea2 alone, ~5 mg/mL in SEC buffer (20 mM Tris pH 8.0, 150 mM NaCl, 1 mM DTT) with 2 mM fluorinated fos-choline-8; three dimeric conformations (closed/closed, closed/open, open/open)
# [2] = target: B1; assay: cryo-EM structure; Gea2-Arf1 complex: 1 mg Gea2, 5 mg ΔN17-Arf1 and 250 units alkaline phosphatase at 4°C overnight, then SEC (20 mM Tris pH 8.0, 300 mM NaCl, 1 mM DTT); nucleotide-free activation intermediate; ~5 mg/mL with 2 mM fluorinated fos-choline-8; settings: both partners purified
binding result [2],Binder,stoichiometry N [1]
,B1,2
binds,B2,
